From patent publication US20100229252, “MEGANUCLEASE VARIANTS CLEAVING A DNA TARGET SEQUENCE FROM THE HUMAN HEMOGLOBIN BETA GENE AND USES THEREOF” (CELLECTIS, published 2010)
Changes are numbered by the printed parent chain.

T1: I-CreI heterodimer HBB8.3_I3 / HBB8.4_A4 (Chlamydomonas reinhardtii, UniProt P05725;P05725 SEQ:1-167,SEQ:1-167)
T1 chain 1: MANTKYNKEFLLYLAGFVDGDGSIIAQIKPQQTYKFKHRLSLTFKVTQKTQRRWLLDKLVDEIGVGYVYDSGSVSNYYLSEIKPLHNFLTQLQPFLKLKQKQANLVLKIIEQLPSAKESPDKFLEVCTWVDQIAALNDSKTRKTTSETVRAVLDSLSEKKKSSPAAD
T1 chain 2: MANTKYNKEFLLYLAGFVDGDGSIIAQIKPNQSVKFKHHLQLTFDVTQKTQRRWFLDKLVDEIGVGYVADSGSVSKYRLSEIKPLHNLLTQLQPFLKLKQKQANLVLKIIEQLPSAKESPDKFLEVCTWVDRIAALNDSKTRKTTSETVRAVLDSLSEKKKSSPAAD

T2: I-CreI heterodimer HBB8.3_I3 / HBB8.4_B4 (Chlamydomonas reinhardtii, UniProt P05725;P05725 SEQ:1-167,SEQ:1-167)
T2 chain 1: T1 chain 1
T2 chain 2: T1 chain 2 with G20S, V34T, H39R, L88F, R132Q

T3: I-CreI heterodimer HBB8.3_C3 / HBB8.4_D4 (Chlamydomonas reinhardtii, UniProt P05725;P05725 SEQ:1-167,SEQ:1-167)
T3 chain 1: T1 chain 1 with Q31N, T33S, Y34G, R39K, L55F, I133V
T3 chain 2: T1 chain 2 with R132Q

T4: I-CreI heterodimer HBB8.3_J3 / HBB8.4_C4 (Chlamydomonas reinhardtii, UniProt P05725;P05725 SEQ:1-167,SEQ:1-167)
T4 chain 1: T1 chain 1 with K45Q, L55F, Y69A, Y78R, F88L
T4 chain 2: T1 chain 2 with G20S, H39R, L88F, R132Q

T5: I-CreI heterodimer HBB8.3_E3 / HBB8.4_A4 (Chlamydomonas reinhardtii, UniProt P05725;P05725 SEQ:1-167,SEQ:1-167)
T5 chain 1: T1 chain 1 with G20S, L55F, V65I
T5 chain 2: T1 chain 2

T6: I-CreI heterodimer HBB8.3_K3 / HBB8.4_D4 (Chlamydomonas reinhardtii, UniProt P05725;P05725 SEQ:1-167,SEQ:1-167)
T6 chain 1: T1 chain 1 with G20S, L55F, Y78I
T6 chain 2: T1 chain 2 with R132Q

T7: I-CreI heterodimer HBB8.3_D3 / HBB8.4_D4 (Chlamydomonas reinhardtii, UniProt P05725;P05725 SEQ:1-167,SEQ:1-167)
T7 chain 1: T1 chain 1 with G20S, Q31N, T33S, Y34G, R39K, L55F, E118G
T7 chain 2: T1 chain 2 with R132Q

T8: I-CreI heterodimer HBB8.3_D3 / HBB8.4_A4 (Chlamydomonas reinhardtii, UniProt P05725;P05725 SEQ:1-167,SEQ:1-167)
T8 chain 1: T1 chain 1 with G20S, Q31N, T33S, Y34G, R39K, L55F, E118G
T8 chain 2: T1 chain 2

T9: I-CreI heterodimer HBB8.3_H3 / HBB8.4_D4 (Chlamydomonas reinhardtii, UniProt P05725;P05725 SEQ:1-167,SEQ:1-167)
T9 chain 1: T1 chain 1 with G20S, Q31N, T33S, Y34G, R39K, L55F, I133V
T9 chain 2: T1 chain 2 with R132Q

T10: I-CreI heterodimer HBB8.3_J3 / HBB8.4_B4 (Chlamydomonas reinhardtii, UniProt P05725;P05725 SEQ:1-167,SEQ:1-167)
T10 chain 1: T1 chain 1 with K45Q, L55F, Y69A, Y78R, F88L
T10 chain 2: T1 chain 2 with G20S, V34T, H39R, L88F, R132Q

T11: I-CreI heterodimer HBB8.3_I3 / HBB8.4_C4 (Chlamydomonas reinhardtii, UniProt P05725;P05725 SEQ:1-167,SEQ:1-167)
T11 chain 1: T1 chain 1
T11 chain 2: T1 chain 2 with G20S, H39R, L88F, R132Q

B1: HBB8 (dsDNA)
DNA 1: CTGACTCCTGTGGAGAAGTCTG
DNA 2: CAGACTTCTCCACAGGAGTCAG
B2: HBB6 (dsDNA)
DNA 1: CTGACTCCTGAGGAGAAGTCTG
DNA 2: CAGACTTCTCCTCAGGAGTCAG

Key:
Assay in all cases: cell_activity; CHO extrachromosomal LacZ assay
[1] = molecular target: T1, I-CreI heterodimer HBB8.3_I3 / HBB8.4_A4
[2] = molecular target: T2, I-CreI heterodimer HBB8.3_I3 / HBB8.4_B4
[3] = molecular target: T3, I-CreI heterodimer HBB8.3_C3 / HBB8.4_D4
[4] = molecular target: T4, I-CreI heterodimer HBB8.3_J3 / HBB8.4_C4
[5] = molecular target: T5, I-CreI heterodimer HBB8.3_E3 / HBB8.4_A4
[6] = molecular target: T6, I-CreI heterodimer HBB8.3_K3 / HBB8.4_D4
[7] = molecular target: T7, I-CreI heterodimer HBB8.3_D3 / HBB8.4_D4
[8] = molecular target: T8, I-CreI heterodimer HBB8.3_D3 / HBB8.4_A4
[9] = molecular target: T9, I-CreI heterodimer HBB8.3_H3 / HBB8.4_D4
[10] = molecular target: T10, I-CreI heterodimer HBB8.3_J3 / HBB8.4_B4
[11] = molecular target: T11, I-CreI heterodimer HBB8.3_I3 / HBB8.4_C4

| Binder | activity [1] [absorbance units] | activity [2] [absorbance units] | activity [3] [absorbance units] | activity [4] [absorbance units] | activity [5] [absorbance units] | activity [6] [absorbance units] | activity [7] [absorbance units] | activity [8] [absorbance units] | activity [9] [absorbance units] | activity [10] [absorbance units] | activity [11] [absorbance units] |
| --- | --- | --- | --- | --- | --- | --- | --- | --- | --- | --- | --- |
| B1 | 1.15 | 2.26 | 0.72 | 2.21 | 2.52 | 1.93 | 2 | 1.53 | 2.1 | 2.47 | 2.42 |
| B2 | 0.45 | 1.88 | 0.37 | 1.88 | 2.04 | 1.63 | 1.09 | 1.23 | 1.84 | 1.75 | 2.36 |
